{"source": "patent US20260009052", "about": "“CAS12 PROTEINS AND USES THEREOF” (GUANGZHOU REFORGENE MEDICINE CO., LTD., published 2026)", "binders": {"B1": {"name": "C12-279 Reporter3 sgRNA ; Reporter3 target (ssRNA ; dsDNA)", "RNA": "GUAAUGCGUCUCCCAUUGACGCCUCACCUCGCGACGCAAUGAUG", "DNA 1": "CTCACCTCGCGACGCAATGATG", "DNA 2": "CATCATTGCGTCGCGAGGTGAG"}}, "key": {"C12-279 Mut-02": {"molecular_target": "T1, C12-279 Mut-02 (synthetic construct, Q186R,D352R)", "T1 chain": "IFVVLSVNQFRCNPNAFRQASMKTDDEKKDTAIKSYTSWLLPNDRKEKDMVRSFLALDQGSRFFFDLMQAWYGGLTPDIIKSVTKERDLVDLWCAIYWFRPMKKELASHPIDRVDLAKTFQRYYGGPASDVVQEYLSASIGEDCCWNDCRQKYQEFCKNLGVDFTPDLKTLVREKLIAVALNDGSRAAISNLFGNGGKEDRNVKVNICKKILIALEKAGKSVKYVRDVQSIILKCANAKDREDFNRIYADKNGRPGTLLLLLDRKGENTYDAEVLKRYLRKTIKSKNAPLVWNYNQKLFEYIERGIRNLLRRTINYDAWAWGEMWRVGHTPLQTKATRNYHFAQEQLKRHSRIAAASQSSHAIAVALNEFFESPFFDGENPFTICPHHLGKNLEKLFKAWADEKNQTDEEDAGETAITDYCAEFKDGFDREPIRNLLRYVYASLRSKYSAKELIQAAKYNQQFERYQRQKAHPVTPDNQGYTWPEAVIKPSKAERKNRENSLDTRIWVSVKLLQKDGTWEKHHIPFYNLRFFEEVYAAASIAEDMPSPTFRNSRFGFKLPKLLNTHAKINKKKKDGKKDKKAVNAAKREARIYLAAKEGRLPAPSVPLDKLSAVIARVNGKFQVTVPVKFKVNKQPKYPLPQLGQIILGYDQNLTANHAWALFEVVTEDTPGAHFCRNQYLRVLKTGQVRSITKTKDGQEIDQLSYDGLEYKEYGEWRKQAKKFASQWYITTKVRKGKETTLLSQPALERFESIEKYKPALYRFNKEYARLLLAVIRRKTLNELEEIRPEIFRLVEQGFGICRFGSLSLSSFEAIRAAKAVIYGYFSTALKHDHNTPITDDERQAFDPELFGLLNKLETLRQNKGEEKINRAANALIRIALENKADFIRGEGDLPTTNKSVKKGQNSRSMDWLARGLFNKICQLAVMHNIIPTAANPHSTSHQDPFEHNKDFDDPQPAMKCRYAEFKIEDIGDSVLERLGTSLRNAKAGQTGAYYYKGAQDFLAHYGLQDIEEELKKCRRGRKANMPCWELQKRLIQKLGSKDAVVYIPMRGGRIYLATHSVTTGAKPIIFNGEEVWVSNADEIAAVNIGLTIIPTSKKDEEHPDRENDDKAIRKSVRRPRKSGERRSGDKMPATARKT", "test": "cell_activity; PAM TTG; +/-0.25", "method": "(§1) Transfection: transfection was performed 12-14 h after plating. 1.5 μL PEI (Yeasen Biotechnology, 40815ES03, Polyethylenimine Linear (PEI) MW25000) and 500 ng mutation clone plasmid were added to 100 μL Opti-MEM per well of the 24-well plate, mixed, and added to the NAAN cell line for cell transfection after placing at room temperature for 20 min. After overnight transfection, a fresh culture medium was replaced, and the culture was continued for 72 h, followed by flow cytometry. Editing efficiencies of different mutant clones were characterized by the proportion of GFP-positive cells.\n(§2) Editing efficiency of some selected mutants was tested in Reporter3 cell line using the same manner as described for the NAAN reporter system, except that the cell line was changed from NAAN cell line to Reporter3 cell line."}, "C12-279 Q186R (Mut-01)": {"molecular_target": "T2, C12-279 Q186R (Mut-01) (synthetic construct, Q186R)", "T2 chain": "T1 chain with R352D", "test": "cell_activity; PAM TTG; +/-0.32", "method": "as §1, §2"}}, "note": "Changes are numbered by the printed parent chain."}
{"binder": "B1", "values": [{"measurement": "binding signal", "setting": "C12-279 Mut-02", "value": "1.39 fold of C12-279"}, {"measurement": "binding signal", "setting": "C12-279 Q186R (Mut-01)", "value": "1.6 fold of C12-279"}]}
